Reference: PMC3432913

Molecular target: Ptch1-GFP (mouse) (UniProt Q61115)
Assay: cell surface binding assay

Chain of UniProt Q61115 (Q61115 whole entry): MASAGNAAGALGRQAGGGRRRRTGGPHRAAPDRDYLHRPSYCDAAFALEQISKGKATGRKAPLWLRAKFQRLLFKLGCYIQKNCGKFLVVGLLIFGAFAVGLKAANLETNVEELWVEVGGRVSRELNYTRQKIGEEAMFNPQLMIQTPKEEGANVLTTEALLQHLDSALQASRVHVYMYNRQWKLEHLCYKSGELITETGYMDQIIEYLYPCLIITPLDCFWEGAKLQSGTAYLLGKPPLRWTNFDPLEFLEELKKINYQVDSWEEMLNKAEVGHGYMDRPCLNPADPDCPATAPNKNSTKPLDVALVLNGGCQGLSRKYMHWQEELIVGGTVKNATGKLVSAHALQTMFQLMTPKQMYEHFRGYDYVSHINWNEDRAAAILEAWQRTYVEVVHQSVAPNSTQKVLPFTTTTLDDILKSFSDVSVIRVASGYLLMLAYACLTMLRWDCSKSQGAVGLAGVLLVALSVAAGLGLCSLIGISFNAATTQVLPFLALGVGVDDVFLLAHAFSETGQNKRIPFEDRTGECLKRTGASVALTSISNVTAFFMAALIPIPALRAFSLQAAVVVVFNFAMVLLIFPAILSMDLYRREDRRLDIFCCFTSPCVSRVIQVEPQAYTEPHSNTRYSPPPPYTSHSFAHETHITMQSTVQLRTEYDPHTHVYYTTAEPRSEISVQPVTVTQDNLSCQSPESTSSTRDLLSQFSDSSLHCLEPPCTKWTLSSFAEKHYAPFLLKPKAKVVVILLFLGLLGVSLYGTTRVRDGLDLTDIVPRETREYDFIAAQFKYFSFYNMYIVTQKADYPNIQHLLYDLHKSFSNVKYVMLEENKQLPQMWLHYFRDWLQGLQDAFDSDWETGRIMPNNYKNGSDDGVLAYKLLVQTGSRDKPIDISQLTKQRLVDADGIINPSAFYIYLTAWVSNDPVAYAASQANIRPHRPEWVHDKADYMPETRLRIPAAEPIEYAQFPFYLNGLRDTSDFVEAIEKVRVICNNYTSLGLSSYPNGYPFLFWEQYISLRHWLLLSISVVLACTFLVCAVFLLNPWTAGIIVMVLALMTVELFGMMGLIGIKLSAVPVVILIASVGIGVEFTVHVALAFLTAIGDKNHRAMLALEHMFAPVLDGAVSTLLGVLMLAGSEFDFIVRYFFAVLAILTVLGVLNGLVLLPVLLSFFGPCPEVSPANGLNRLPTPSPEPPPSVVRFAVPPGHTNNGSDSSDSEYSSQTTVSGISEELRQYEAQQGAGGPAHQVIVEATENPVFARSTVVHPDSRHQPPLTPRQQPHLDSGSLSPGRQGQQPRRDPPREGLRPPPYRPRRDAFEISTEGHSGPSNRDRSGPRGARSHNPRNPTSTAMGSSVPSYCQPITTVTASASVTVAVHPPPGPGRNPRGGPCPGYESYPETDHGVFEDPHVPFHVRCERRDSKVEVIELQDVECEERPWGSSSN

Substance	binding relative to Boc ecto-Fc
Boc-Fc construct containing the FNIIIa domain alone (Fc fusion)	60%
Boc-Fc construct containing the FNIIIb domain alone (Fc fusion)	60%
